Test results reported in EP4806921A1 (Daan Biotherapeutics, Inc., dated 2026).

T1: CEACAM5 protein (Acrobiosystems) (UniProt P06731 35-685)
T1 construct: also called CEACAM5 full-length protein
T1 sequence (looked up): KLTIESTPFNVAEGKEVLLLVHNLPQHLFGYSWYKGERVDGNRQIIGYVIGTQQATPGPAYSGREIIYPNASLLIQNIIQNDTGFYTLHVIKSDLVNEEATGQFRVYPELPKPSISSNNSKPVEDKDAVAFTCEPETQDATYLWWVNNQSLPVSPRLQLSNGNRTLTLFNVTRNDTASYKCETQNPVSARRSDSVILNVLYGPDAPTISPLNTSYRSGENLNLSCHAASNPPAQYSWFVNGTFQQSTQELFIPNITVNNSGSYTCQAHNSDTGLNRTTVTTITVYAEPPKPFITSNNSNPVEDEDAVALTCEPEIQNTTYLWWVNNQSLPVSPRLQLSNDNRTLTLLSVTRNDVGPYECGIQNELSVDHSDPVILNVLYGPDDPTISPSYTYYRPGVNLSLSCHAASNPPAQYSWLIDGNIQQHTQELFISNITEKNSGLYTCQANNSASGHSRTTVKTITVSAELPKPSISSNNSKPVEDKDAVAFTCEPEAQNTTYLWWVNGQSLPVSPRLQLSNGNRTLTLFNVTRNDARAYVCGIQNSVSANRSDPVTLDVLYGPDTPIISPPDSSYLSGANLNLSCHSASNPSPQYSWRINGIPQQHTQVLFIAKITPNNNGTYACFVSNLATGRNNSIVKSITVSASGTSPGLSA


Target: T1, CEACAM5 protein (Acrobiosystems)
Experiment: ELISA on coated CEACAM5 protein (Acrobiosystems), antibody 200 nM to 0.0004 nM

Row | binding result | Binder
1 | binds | humanized 94E12E2-04 antibody (antibody, V domains shown) VH: EVQLVESGGGLVQPGGSLRLSCAASGFNIKDNYMHWVRQAPGKGLEWIGWIDPENGDTEYDPKFQGRATMSADTSKNTAYLQMNSLRAEDTAVYYCNIITMATPYPMDYWGQGTLVTVSS VL: DIQLTQSPSSLSASVGDRVTITCSASTSVIYMHWFQQKPGKAPKLWIYSTSNLASGVPSRFSGSGSGTDYTLTISSLQPEDFATYYCQQRSSYPLTFGQGTKVEIKR
2 | binds | humanized 94E12E2-06 antibody (antibody, V domains shown) VH: QVQLVQSGAEVKKPGASVKVSCKASGFNIKDNYMHWVRQAPGQGLEWIGWIDPENGDTEYDPKFQGRATMTADTSISTAYMELSRLRSDDTAVYYCNIITMATPYPMDYWGQGTLVTVSS VL: EIVLTQSPDFQSVTPKEKVTITCSASTSVIYMHWFQQKPDQSPKLWIYSTSNLASGVPSRFSGSGSGTDYTLTINSLEAEDAATYYCQQRSSYPLTFGQGTKLEIKR
